This data set relates to Escherichia coli TOP10. The data set can be described thus: shrunken log2 fold change of peptide-encoding DNA abundance (4.5 h post-induction vs induction); higher = less antimicrobial activity (less host growth inhibition). The note with it: time post-induction: 4.5 h; library: site-saturation at positions 5, 18, 19, 20.
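Note: peptides expressed intracellularly from a pBAD plasmid library in pooled LB shake-flask culture, induced with 0.3% L-arabinose, DNA abundance read by NGS, three biological replicates, DESeq2 with apeglm shrinkage.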

On to RRIRKRPPRLPRPRPRPSAMPRP, for which the “shrunken log2 fold change” value is 0.664.

As for RRIRDRPPRLPRPRPRPHTKPRP, the “shrunken log2 fold change” value turned out to be 0.0345.

Take RRIRWRPPRLPRPRPRPVMFPRP: the “shrunken log2 fold change” value is -0.0114.

Regarding RRIRCRPPRLPRPRPRPIKWPRP, the “shrunken log2 fold change” value is -0.343.

In the case of RRIRWRPPRLPRPRPRPHKIPRP, the “shrunken log2 fold change” value was -0.0312.

For the sequence RRIRQRPPRLPRPRPRPGYGPRP, the “shrunken log2 fold change” value is -0.131.

Consider RRIRFRPPRLPRPRPRPGNFPRP, for which the “shrunken log2 fold change” value is -0.133.

Regarding RRIRTRPPRLPRPRPRPVECPRP, the “shrunken log2 fold change” value was found to be 0.0216.

RRIRNRPPRLPRPRPRPEYEPRP: the “shrunken log2 fold change” value is -0.156.

On to RRIRDRPPRLPRPRPRPMFLPRP, for which the “shrunken log2 fold change” value was found to be 0.0737.

As for RRIRDRPPRLPRPRPRPPMLPRP, the “shrunken log2 fold change” value was -0.0165.

As to RRIRTRPPRLPRPRPRPPEFPRP, the “shrunken log2 fold change” value is -0.231.

For the sequence RRIRNRPPRLPRPRPRPWVKPRP, the “shrunken log2 fold change” value is -0.0802.

As to RRIRKRPPRLPRPRPRPHNEPRP, the “shrunken log2 fold change” value came to 0.323.

As to RRIRFRPPRLPRPRPRPAEGPRP, the “shrunken log2 fold change” value is 0.234.

For the sequence RRIRARPPRLPRPRPRPLDRPRP, the “shrunken log2 fold change” value was -0.233.

Take RRIRNRPPRLPRPRPRPKSLPRP: the “shrunken log2 fold change” value was -0.433.

On to RRIRMRPPRLPRPRPRPMENPRP, for which the “shrunken log2 fold change” value was found to be 0.76.

Take RRIRSRPPRLPRPRPRPMKAPRP: the “shrunken log2 fold change” value was -0.00133.

For RRIRFRPPRLPRPRPRPPHPPRP, the “shrunken log2 fold change” value is 0.615.

Turning to RRIRWRPPRLPRPRPRPKLFPRP, the “shrunken log2 fold change” value worked out at 0.589.

For RRIRVRPPRLPRPRPRPMILPRP, the “shrunken log2 fold change” value is -0.0833.

As for RRIRVRPPRLPRPRPRPFLRPRP, the “shrunken log2 fold change” value is -0.563.

RRIRARPPRLPRPRPRPRWFPRP: the “shrunken log2 fold change” value came to 0.623.

As to RRIRPRPPRLPRPRPRPMLWPRP, the “shrunken log2 fold change” value came to 0.172.

Take RRIRERPPRLPRPRPRPGKVPRP: the “shrunken log2 fold change” value is 0.206.

For the sequence RRIRARPPRLPRPRPRPEKWPRP, the “shrunken log2 fold change” value came out at 0.244.

With RRIRVRPPRLPRPRPRPQMNPRP, the “shrunken log2 fold change” value was -0.0919.

In the case of RRIRGRPPRLPRPRPRPSDRPRP, the “shrunken log2 fold change” value turned out to be 0.137.

Consider RRIRRRPPRLPRPRPRPIGMPRP, for which the “shrunken log2 fold change” value is -0.0232.

As to RRIRKRPPRLPRPRPRPAKFPRP, the “shrunken log2 fold change” value amounted to 0.602.

On to RRIRERPPRLPRPRPRPVPPPRP, for which the “shrunken log2 fold change” value amounted to 0.22.

With RRIRTRPPRLPRPRPRPDFFPRP, the “shrunken log2 fold change” value is 0.175.

As for RRIRCRPPRLPRPRPRPGVVPRP, the “shrunken log2 fold change” value came out at 0.147.

RRIRCRPPRLPRPRPRPMMPPRP: the “shrunken log2 fold change” value is -0.11.

Regarding RRIRPRPPRLPRPRPRPVCWPRP, the “shrunken log2 fold change” value was 0.533.

For the sequence RRIRNRPPRLPRPRPRPYTCPRP, the “shrunken log2 fold change” value is -0.0637.

On to RRIRSRPPRLPRPRPRPAWQPRP, for which the “shrunken log2 fold change” value was 0.0367.

RRIRIRPPRLPRPRPRPCTGPRP: the “shrunken log2 fold change” value was -0.887.

With RRIRIRPPRLPRPRPRPKLKPRP, the “shrunken log2 fold change” value is -0.688.

RRIRHRPPRLPRPRPRPKFWPRP: the “shrunken log2 fold change” value came to 0.00227.

For RRIRWRPPRLPRPRPRPMQWPRP, the “shrunken log2 fold change” value came to 0.379.

Take RRIRTRPPRLPRPRPRPWGRPRP: the “shrunken log2 fold change” value stood at 0.00879.

As for RRIRFRPPRLPRPRPRPSGLPRP, the “shrunken log2 fold change” value is -0.237.

For the sequence RRIRRRPPRLPRPRPRPRAYPRP, the “shrunken log2 fold change” value is -0.0105.

As for RRIRRRPPRLPRPRPRPFYGPRP, the “shrunken log2 fold change” value is -0.0114.

Regarding RRIRDRPPRLPRPRPRPIRCPRP, the “shrunken log2 fold change” value is -0.0116.

As to RRIRKRPPRLPRPRPRPGNTPRP, the “shrunken log2 fold change” value is -0.0331.

As to RRIRARPPRLPRPRPRPEHSPRP, the “shrunken log2 fold change” value worked out at 0.244.

Regarding RRIRSRPPRLPRPRPRPIPMPRP, the “shrunken log2 fold change” value was -0.0186.

In the case of RRIRIRPPRLPRPRPRPEYRPRP, the “shrunken log2 fold change” value is -1.12.

Take RRIRYRPPRLPRPRPRPLFFPRP: the “shrunken log2 fold change” value is -0.751.

Consider RRIRMRPPRLPRPRPRPLQLPRP, for which the “shrunken log2 fold change” value turned out to be 0.102.

As to RRIRQRPPRLPRPRPRPSTAPRP, the “shrunken log2 fold change” value stood at 0.0789.

RRIRERPPRLPRPRPRPMKKPRP: the “shrunken log2 fold change” value came to 0.00499.

For RRIRYRPPRLPRPRPRPVGAPRP, the “shrunken log2 fold change” value is 0.252.

On to RRIRNRPPRLPRPRPRPLSEPRP, for which the “shrunken log2 fold change” value was 0.0166.

With RRIRQRPPRLPRPRPRPLPDPRP, the “shrunken log2 fold change” value turned out to be 0.0466.

For RRIRTRPPRLPRPRPRPDMAPRP, the “shrunken log2 fold change” value is -0.0628.

Consider RRIRDRPPRLPRPRPRPQSCPRP, for which the “shrunken log2 fold change” value is -0.0045.

In the case of RRIRCRPPRLPRPRPRPIEFPRP, the “shrunken log2 fold change” value was found to be 0.191.

As to RRIRGRPPRLPRPRPRPNEVPRP, the “shrunken log2 fold change” value amounted to 0.0747.

For RRIRNRPPRLPRPRPRPYTIPRP, the “shrunken log2 fold change” value was -0.138.

Turning to RRIRIRPPRLPRPRPRPEHTPRP, the “shrunken log2 fold change” value is -0.464.

For RRIRVRPPRLPRPRPRPKCNPRP, the “shrunken log2 fold change” value was -0.181.

Regarding RRIRCRPPRLPRPRPRPPNYPRP, the “shrunken log2 fold change” value was -0.376.

Regarding RRIRYRPPRLPRPRPRPYTTPRP, the “shrunken log2 fold change” value is -0.554.

Take RRIRFRPPRLPRPRPRPVRLPRP: the “shrunken log2 fold change” value came to 0.0919.

Regarding RRIRGRPPRLPRPRPRPNPCPRP, the “shrunken log2 fold change” value stood at 0.102.

Take RRIRERPPRLPRPRPRPIPCPRP: the “shrunken log2 fold change” value is -0.341.

RRIRCRPPRLPRPRPRPWRNPRP: the “shrunken log2 fold change” value is -0.157.

Consider RRIRWRPPRLPRPRPRPLSIPRP, for which the “shrunken log2 fold change” value was -0.0528.

For the sequence RRIRHRPPRLPRPRPRPEIAPRP, the “shrunken log2 fold change” value is -0.0585.

In the case of RRIRERPPRLPRPRPRPIHLPRP, the “shrunken log2 fold change” value is -0.0986.

For RRIRWRPPRLPRPRPRPVHWPRP, the “shrunken log2 fold change” value came to 0.138.

Turning to RRIRRRPPRLPRPRPRPIGAPRP, the “shrunken log2 fold change” value came to 0.435.

As for RRIRQRPPRLPRPRPRPSMTPRP, the “shrunken log2 fold change” value is -0.285.

For the sequence RRIRNRPPRLPRPRPRPWSKPRP, the “shrunken log2 fold change” value is -0.167.

As to RRIRGRPPRLPRPRPRPFSEPRP, the “shrunken log2 fold change” value was determined as 0.144.

As to RRIRWRPPRLPRPRPRPFVFPRP, the “shrunken log2 fold change” value was -0.0764.

With RRIRLRPPRLPRPRPRPSIFPRP, the “shrunken log2 fold change” value is -0.709.

Consider RRIRRRPPRLPRPRPRPCRHPRP, for which the “shrunken log2 fold change” value is -0.105.

On to RRIRYRPPRLPRPRPRPKCWPRP, for which the “shrunken log2 fold change” value was 0.14.

In the case of RRIRHRPPRLPRPRPRPCRPPRP, the “shrunken log2 fold change” value came out at 0.0355.

On to RRIRRRPPRLPRPRPRPNGPPRP, for which the “shrunken log2 fold change” value turned out to be 0.384.

On to RRIRPRPPRLPRPRPRPDCMPRP, for which the “shrunken log2 fold change” value amounted to 0.053.

Turning to RRIRKRPPRLPRPRPRPCIFPRP, the “shrunken log2 fold change” value is -0.0101.

Consider RRIRHRPPRLPRPRPRPWCWPRP, for which the “shrunken log2 fold change” value turned out to be 0.0593.

Take RRIRYRPPRLPRPRPRPDEMPRP: the “shrunken log2 fold change” value was 0.0412.

With RRIRWRPPRLPRPRPRPRLYPRP, the “shrunken log2 fold change” value came to 0.245.

RRIRNRPPRLPRPRPRPHSQPRP: the “shrunken log2 fold change” value is -0.392.

Take RRIRGRPPRLPRPRPRPNKQPRP: the “shrunken log2 fold change” value stood at 0.326.

Regarding RRIRCRPPRLPRPRPRPAIFPRP, the “shrunken log2 fold change” value was -0.273.

As to RRIRGRPPRLPRPRPRPEYNPRP, the “shrunken log2 fold change” value stood at 0.643.

Turning to RRIRNRPPRLPRPRPRPIYKPRP, the “shrunken log2 fold change” value is -0.414.

Turning to RRIRFRPPRLPRPRPRPLPVPRP, the “shrunken log2 fold change” value is 0.142.

On to RRIRHRPPRLPRPRPRPKAEPRP, for which the “shrunken log2 fold change” value came to 0.0672.

With RRIRKRPPRLPRPRPRPTPHPRP, the “shrunken log2 fold change” value turned out to be 0.653.

Take RRIRSRPPRLPRPRPRPKISPRP: the “shrunken log2 fold change” value came out at 0.0778.

For RRIRERPPRLPRPRPRPMMAPRP, the “shrunken log2 fold change” value is -0.128.

Turning to RRIRWRPPRLPRPRPRPDIDPRP, the “shrunken log2 fold change” value worked out at 0.546.

With RRIRLRPPRLPRPRPRPRYTPRP, the “shrunken log2 fold change” value is -0.0696.

With RRIRFRPPRLPRPRPRPDLDPRP, the “shrunken log2 fold change” value was -0.0913.

Consider RRIRHRPPRLPRPRPRPHCVPRP, for which the “shrunken log2 fold change” value was -0.01.

For the sequence RRIRCRPPRLPRPRPRPLGVPRP, the “shrunken log2 fold change” value came to 0.0123.

Consider RRIRPRPPRLPRPRPRPILSPRP, for which the “shrunken log2 fold change” value is -0.038.

As for RRIRKRPPRLPRPRPRPCQPPRP, the “shrunken log2 fold change” value was 0.227.

For the sequence RRIRARPPRLPRPRPRPQHWPRP, the “shrunken log2 fold change” value came out at 0.0917.

On to RRIRDRPPRLPRPRPRPQNEPRP, for which the “shrunken log2 fold change” value was -0.24.

Take RRIRARPPRLPRPRPRPRHWPRP: the “shrunken log2 fold change” value came to 0.511.

As to RRIRGRPPRLPRPRPRPREGPRP, the “shrunken log2 fold change” value was 1.42.

Consider RRIRPRPPRLPRPRPRPERAPRP, for which the “shrunken log2 fold change” value amounted to 1.17.

RRIRKRPPRLPRPRPRPKKFPRP: the “shrunken log2 fold change” value stood at 0.0892.

Regarding RRIRVRPPRLPRPRPRPNHPPRP, the “shrunken log2 fold change” value was -0.0266.

RRIRHRPPRLPRPRPRPIIMPRP: the “shrunken log2 fold change” value is -0.029.

Take RRIRCRPPRLPRPRPRPHWSPRP: the “shrunken log2 fold change” value was -0.395.

With RRIRNRPPRLPRPRPRPIGMPRP, the “shrunken log2 fold change” value is -0.0748.

As to RRIRKRPPRLPRPRPRPFYSPRP, the “shrunken log2 fold change” value came to 0.00762.

For the sequence RRIRYRPPRLPRPRPRPFTEPRP, the “shrunken log2 fold change” value was -0.955.

As to RRIRMRPPRLPRPRPRPWVMPRP, the “shrunken log2 fold change” value was -0.022.

With RRIRQRPPRLPRPRPRPAQDPRP, the “shrunken log2 fold change” value was determined as 0.226.

For RRIRNRPPRLPRPRPRPRWGPRP, the “shrunken log2 fold change” value was -0.0125.

Take RRIRYRPPRLPRPRPRPVQDPRP: the “shrunken log2 fold change” value was -0.00208.

Consider RRIRNRPPRLPRPRPRPCNYPRP, for which the “shrunken log2 fold change” value is -0.164.

Take RRIRHRPPRLPRPRPRPPSDPRP: the “shrunken log2 fold change” value came out at 0.146.

The values are drawn from the supplement of paper PMC9112550, “Optimization of the antimicrobial peptide Bac7 by deep mutational scanning” (BMC Biology, 2022).
